Assay results from patent publication US20160331840A1.

Molecular target: InlB (recombinant His-tagged InlB321 peptide, aa 36-321 of internalin B) (Listeria monocytogenes)
Test: FACS competition; InlB pre-incubated with soluble MET peptide at 1:1 molar ratio

In the case of “MET peptide (soluble peptide derived from the extracellular, ligand-binding domain of MET; YCP2247 SPEED BioSystems) (from UniProt P08581 25-932) (receptor)”, the percent reduction of InlB binding to H1993 cells is reported as 50%.
